Measured values from patent publication US20070248613A1.
Where two headings read alike, the source gives them in different places.

How the values were obtained:
IQN17-2Pro = assay: SPR (Biacore)
IZN17 (HIV) = IZN17 (HIV) (UniProt P04578); assay: SPR (Biacore)
IZN17-G572D (HIV) = IZN17-G572D (HIV) (UniProt P04578); assay: SPR (Biacore)
IZN17-L565M (HIV) = IZN17-L565M (HIV) (UniProt P04578); assay: SPR (Biacore)
IZN17-Q567R (HIV) = IZN17-Q567R (HIV) (UniProt P04578); assay: SPR (Biacore)
D5 IgG [1] = biological target: D5 IgG
D5 IgG, sequence (VH, as listed by the source, chain 1 of 2): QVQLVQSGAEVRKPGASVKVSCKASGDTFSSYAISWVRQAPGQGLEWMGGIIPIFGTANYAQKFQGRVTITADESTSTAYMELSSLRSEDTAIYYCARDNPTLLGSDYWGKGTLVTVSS
D5 IgG, sequence (VL, as listed by the source, chain 2 of 2): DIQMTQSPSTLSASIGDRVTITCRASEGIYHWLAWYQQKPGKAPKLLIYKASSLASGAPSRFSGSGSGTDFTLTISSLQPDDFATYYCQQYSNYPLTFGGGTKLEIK

D5 IgG [2] = biological target: D5 IgG; remark: listed apart in the source
[3] = biological target: gp120 of the HIV-1 HXB2 envelope (HIV-1 strain HXB2) (UniProt P04578); assay: cell-based or functional assay

D5 IgG (antibody), sequence (VH): as the sequence (VH, as listed by the source, chain 1 of 2) above
D5 IgG (antibody), sequence (VL): as the sequence (VL, as listed by the source, chain 2 of 2) above

Work on D5 IgG (antibody) yielded a Kd (IQN17-2Pro) of 240 nM, a koff (IQN17-2Pro) of 0.0022 s⁻¹ and a kon (IQN17-2Pro) of 9000 M⁻¹ s⁻¹. For the same substance, the Kd (IZN17 (HIV)) was 0.1 nM, the koff (IZN17 (HIV)) was 0.00059 s⁻¹ and the kon (IZN17 (HIV)) was 6.1e+06 M⁻¹ s⁻¹. The Kd (IZN17-G572D (HIV)) was 550 nM, the koff (IZN17-G572D (HIV)) was 0.003 s⁻¹ and the kon (IZN17-G572D (HIV)) was 5500 M⁻¹ s⁻¹. The Kd (IZN17-L565M (HIV)) was 0.3 nM, the koff (IZN17-L565M (HIV)) was 0.00089 s⁻¹ and the kon (IZN17-L565M (HIV)) was 3e+06 M⁻¹ s⁻¹. The Kd (IZN17-Q567R (HIV)) was 1.5 nM, the koff (IZN17-Q567R (HIV)) was 0.0012 s⁻¹ and the kon (IZN17-Q567R (HIV)) was 800000 M⁻¹ s⁻¹.

“IZN17 (from UniProt P04578 565-581) (peptide)” gave an IC50 (read off the curve) (D5 IgG [1]) of 7 nM and an IC50 (read off the curve) (D5 IgG [2]) of 2 nM.

For “IZN17 V570A (from UniProt P04578 565-581) (peptide)”, the IC50 (read off the curve) (D5 IgG [2]) was 7 nM.

With “IZN17-L565M (from UniProt P04578 565-581) (peptide)” the IC50 (read off the curve) (D5 IgG [1]) was 10 nM.

With “IZN17-Q567R (from UniProt P04578 565-581) (peptide)” the IC50 (read off the curve) (D5 IgG [1]) was 10 nM.

For X5 scFv, the IC50, single cycle infectivity assay against HIV-HXB2 [3] was 30 nM.
